Test results reported in PMC6488028.

Biological target: GenB1 (aminotransferase involved in C6'-amination, Micromonospora echinospora) (Micromonospora echinospora)
Assay: crystal structure

Substance: GenB1 (aminotransferase involved in C6'-amination, Micromonospora echinospora) (enzyme)
- stoichiometry N: 2
